The text below walks through data of patent US20080113421A1, “Stabilizing proteins against denaturation and inactivation by charged detergents using chemical modifications, including modifications that increase net charge” (President and Fellows of Harvard College, priority 2006, published 2008).

Data set [1] in a line: Net charge of protein (capillary electrophoresis, charge ladder). Format: physicochemical. The method, then: BCA-Ac18 was synthesized by reacting the lysine residues of BCA with acetic anhydride in 100 mM HEPES buffer, pH 8.2. The N-terminus of BCA was acetylated posttranslationally. The final product contained ˜90% of BCA-Ac18 and 10% of BCA-Ac17, as determined by peak areas in an electropherogram from separation by capillary electrophoresis. The net charge of BCA in Tris-Gly buffer was about −3, and the net charge of BCA-Ac18 was about −19. It is believed that the difference in charge between BCA and BCA-Ac18 was less than 18 full units of charge due to charge regulation-adjustment of protonation states of other ionizable groups on the protein to counteract the increasing electrostatic potential on its surface.
For any charge ladder of BCA, as the number of modifications (n) increases, the total charge on the protein becomes more negative, and the surface of the protein becomes more hydrophobic due to conversion of NH3^+ groups to NHCOR groups. Native BCA has a charge of ˜−2.9 at pH 8. The charge on the early rungs of the ladder increased linearly with the number of acylations; each rung adds an additional charge of ˜−0.9. Therefore, for example, BCA-Ac8 has a charge of ˜−10. The later rungs of the ladder may differ by <0.9 units of charge. Using the Linderstrom-Lang model of cooperativity in proton binding, the charge on BCA-Ac18 was calculated to be −19. The mobility of a given rung of BCA-Acn may have nearly the same mobility as the corresponding rung of BCA-Hexn. Thus, the charges of the BCA-Hexn may be indistinguishable from those of BCA-Acn for a given rung number. (Small deviations in mobility between later rungs of the two ladders may be due either to a change in charge or a change in drag between the two ladders. It can be assumed that any differences in the mobilities are due to additional drag from the hexanoyl groups relative to the acetyl groups.

A short description of data set [2]: Denaturation of BCA charge ladders in 3 mM SDS (dialysis cassette) followed by capillary electrophoresis, with transition-state model fit. The format is physicochemical. The method, then: Denaturation experiments were performed as follows. A charge ladder of BCA (BCA-Acn or BCA-Hexn, 1 mL of 100 micromolar total protein in Tris-Gly buffer) was placed in a dialysis cassette (MW cutoff of 10 kDa). The dialysis cassette was placed in a 1 L bath of 3 mM SDS in Tris-Gly buffer at room temperature. The buffer was changed every 24 h. At regular intervals of time (approximately every half-hour), 100 microliters of the protein solution was removed from the dialysis cassette; ˜7 microliters of that aliquot was diluted 10-fold and the absorbance of the diluted sample at 280 nm (ε280,BcA=57,000 M^−1 cm^−1, the absorption cross section can be assumed to be is unchanged by acylation) was measured to determine the total protein concentration. The aliquot was diluted because the absorbance of the 100 micromolar solution was too high to be read accurately by the ultraviolet spectrometer. This diluted aliquot was discarded. The remainder of the solution was then run on CE. The protein solution, except for the portion diluted for ultraviolet measurement, was returned to the dialysis cassette; the aliquot was outside of the dialysis cassette for ˜5 min.
Capillary electrophoresis experiments were carried out in a Beckman (Fullerton, Calif.) PACE-MDQ system, using a capillary of inner diameter of 50 micrometers of total length of 110.2 cm, 100 cm to the detector. Tris-Gly in D2O was used as the running buffer, and the applied voltage was 30 kV. D2O was used in place of H2O for the electrophoresis buffer because the viscosity of D2O is higher than that of H2O and the higher viscosity minimizes diffusion. Samples were injected using pressure (20 psi) for 30 s. Each sample contained 0.65 mM dimethylformamide as an electrically neutral marker for electroosmotic flow.
The CMC of SDS in the Tris-Gly buffer used in this example was 4.3 mM. 3 mM SDS was chosen for these experiments because this concentration of SDS denatured BCA in an interval of time that was convenient for experimental work using CE. In addition, this concentration of SDS was close to the concentration often used in SDS-PAGE (0.1% or 3.5 mM). 1 mL of a solution of ˜100 micromolar of a charge ladder of BCA, dissolved in Tris-Gly buffer, was placed into a dialysis cassette (molecular weight cutoff of 10 kDa) and the cassette placed in 1 L of Tris-Gly buffer containing 3 mM SDS. The bath was kept at room temperature (˜22° C.) for the duration of the experiment.
At regular intervals of time (approximately every half hour), 100-microliter aliquots of the solutions containing the charge ladder of BCA were removed from the cassette in a bath of 3 mM SDS in Tris-Gly buffer, the total protein concentration in the aliquot was measured using absorbance at 280 nm, and a portion (˜10 nL) of the aliquot injected onto the CE. The unused portions of the aliquots were then returned to the cassette.
Residence time in the detection volume was determined as follows. […] If two proteins with the same absorptivity were present in a sample in equal concentrations, the protein of lower velocity would have a larger measured peak area than the protein of higher velocity. To correct for this experimental bias, the area of each peak was multiplied-by the velocity of the protein (Acorr=Ameasured×LD/tD), where LD is the length of the capillary from the end (where injection occurs) to the detector (100 cm in all of these experiments) and tD is the time it takes for the rung to reach the detector.
Initial differences in concentrations of each rung were as follows. The areas of each of the rungs in the charge ladder were not all equal before denaturation. To measure the fraction of each rung that has denatured at each time, the velocity-corrected area of each rung in the sample was divided by the velocity-corrected area of that rung in the charge ladder run in the absence of SDS.
A comparison of the rates of denaturation follows. […]

With bovine carbonic anhydrase II [BCA], the net charge entry in data set [1] (Tris-Gly buffer) is recorded as “about −3”. The substance also yielded a charge in data set [1] (pH 8) of around −2.9. For the same substance, the “ΔG‡ of denaturation (a coefficient)” value in data set [2] (3 mM SDS, room temperature, assumes νκTST=10^6 s^−1) worked out at 14 ± 1 kcal/mol. Besides, the “radius of the transition state RTS” value in data set [2] (model, assuming a radius of BCA of 2 nm) came out at 2.1 nm.
